Test [1] addresses HA-tagged human Neuropeptide S receptor, D105A mutant in the N107 background (human) (UniProt Q6W5P4).
In test [2] the target is T1, HA-tagged human Neuropeptide S receptor, N107 variant (human, UniProt Q6W5P4 1-371).
T1 sequence (looked up): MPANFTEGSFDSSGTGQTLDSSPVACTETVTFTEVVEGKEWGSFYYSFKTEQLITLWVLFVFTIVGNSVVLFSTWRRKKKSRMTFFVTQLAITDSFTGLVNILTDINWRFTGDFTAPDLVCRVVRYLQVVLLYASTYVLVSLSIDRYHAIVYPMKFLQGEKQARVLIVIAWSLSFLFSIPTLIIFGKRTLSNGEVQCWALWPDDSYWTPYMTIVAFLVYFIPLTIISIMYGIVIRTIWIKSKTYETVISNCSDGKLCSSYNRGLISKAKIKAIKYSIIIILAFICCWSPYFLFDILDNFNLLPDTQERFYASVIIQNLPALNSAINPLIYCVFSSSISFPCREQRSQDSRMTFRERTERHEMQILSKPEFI
Put plainly: cell-based or functional assay.

Test [3] concerns the target T2, HA-tagged human Neuropeptide S receptor, D105A mutant in the N107 background (human, UniProt Q6W5P4 1-371, D105A).
T2 sequence (looked up): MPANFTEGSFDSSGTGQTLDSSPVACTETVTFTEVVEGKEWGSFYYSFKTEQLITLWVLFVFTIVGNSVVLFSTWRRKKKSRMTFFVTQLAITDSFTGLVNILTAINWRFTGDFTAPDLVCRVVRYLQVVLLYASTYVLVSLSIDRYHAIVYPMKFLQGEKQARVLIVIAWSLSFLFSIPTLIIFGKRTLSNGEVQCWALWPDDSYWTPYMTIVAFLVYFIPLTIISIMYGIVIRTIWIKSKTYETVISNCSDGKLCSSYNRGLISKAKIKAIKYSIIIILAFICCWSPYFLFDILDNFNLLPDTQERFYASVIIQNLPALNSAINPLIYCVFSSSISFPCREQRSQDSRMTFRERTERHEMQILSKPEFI
Description: cell-based or functional assay.

Test [4] has as its target T3, HA-tagged human Neuropeptide S receptor, I107 variant (human, UniProt Q6W5P4 1-371, N107I).
T3 sequence (looked up): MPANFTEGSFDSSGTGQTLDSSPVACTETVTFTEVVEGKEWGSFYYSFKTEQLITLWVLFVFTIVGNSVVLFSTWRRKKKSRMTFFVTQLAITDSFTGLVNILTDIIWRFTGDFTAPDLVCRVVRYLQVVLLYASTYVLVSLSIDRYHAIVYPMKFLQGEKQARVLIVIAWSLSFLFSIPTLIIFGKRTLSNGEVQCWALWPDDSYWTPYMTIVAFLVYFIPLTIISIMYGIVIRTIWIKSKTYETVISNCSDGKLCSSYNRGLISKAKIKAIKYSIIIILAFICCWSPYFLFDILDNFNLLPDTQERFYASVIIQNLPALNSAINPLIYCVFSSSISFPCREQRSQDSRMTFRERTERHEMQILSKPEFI
Description: cell-based or functional assay.

For test [5], the target named is T4, HA-tagged human Neuropeptide S receptor, N101A mutant in the N107 background (human, UniProt Q6W5P4 1-371, N101A).
T4 sequence (looked up): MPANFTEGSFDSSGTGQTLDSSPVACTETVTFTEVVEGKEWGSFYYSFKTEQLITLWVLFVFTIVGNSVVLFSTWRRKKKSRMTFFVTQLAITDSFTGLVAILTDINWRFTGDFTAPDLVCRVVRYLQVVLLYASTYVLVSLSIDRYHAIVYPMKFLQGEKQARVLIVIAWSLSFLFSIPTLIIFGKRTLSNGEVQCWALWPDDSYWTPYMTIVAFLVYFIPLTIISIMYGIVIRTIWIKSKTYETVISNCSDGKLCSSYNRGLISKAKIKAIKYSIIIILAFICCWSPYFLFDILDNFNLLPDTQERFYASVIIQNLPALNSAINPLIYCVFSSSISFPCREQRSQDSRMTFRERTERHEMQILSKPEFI
Put plainly: cell-based or functional assay.

For test [6], the target named is T1, HA-tagged human Neuropeptide S …. Description: radioligand binding.
Test [7] concerns the target T2, HA-tagged human Neuropeptide S …. Put plainly: radioligand binding.

From article PMC2814945 (Peptides, 2009) come the findings set out here.

As to human NPS 1-18 (peptide), the EC50 of receptor activation by human NPS 1-18 (unpublished data) in test [1] was determined as 1000 nM.

As to SFRNGVGTGMKKTSFQRAKS (peptide, UniProt P0C0P6 70-89, looked up) [Neuropeptide S (human)], in test [2], the “EC50 of NPS-mediated mobilisation of intracellular Ca2+ (FLIPR), stable clone #2” value came out at 25 nM and the “EC50 of NPS-mediated mobilisation of intracellular Ca2+ (FLIPR), stable clone #4” value was 4.9 nM. In addition, the “EC50 of receptor activation by human NPS 1-20 (unpublished data)” value in test [3] was about 1000 nM. Moreover, in test [4], the “EC50 of NPS-mediated mobilisation of intracellular Ca2+ (FLIPR), stable clone #4” value is 1.6 nM and the “EC50 of NPS-mediated mobilisation of intracellular Ca2+ (FLIPR), stable clone #5” value amounted to 1.7 nM. Further, in test [5], the “EC50 of NPS-mediated mobilisation of intracellular Ca2+ (FLIPR), stable clone #2” value turned out to be 12 nM and the “EC50 of NPS-mediated mobilisation of intracellular Ca2+ (FLIPR), stable clone #6” value turned out to be 42 nM. This molecule had an IC50 in test [6] of 8.7 ± 1.9 nM. Besides, the IC50 in test [7] was over 200 nM.

As usually defined, the IC50 is the concentration at which inhibition is half-maximal. Read a low IC50 as inhibition by little substance.
